{
  "source": "patent US20210388087A1",
  "data": [
    {"target": "Human CD3eg linker (human)", "sequence (chain, as listed by the source limits assumed)": "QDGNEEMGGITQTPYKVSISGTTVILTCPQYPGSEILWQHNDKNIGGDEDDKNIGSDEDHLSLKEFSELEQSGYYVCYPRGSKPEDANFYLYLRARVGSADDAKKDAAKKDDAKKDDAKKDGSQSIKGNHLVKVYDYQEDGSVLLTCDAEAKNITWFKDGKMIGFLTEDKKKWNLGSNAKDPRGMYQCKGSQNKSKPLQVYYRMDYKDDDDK", "experiment": "SPR; fold vs parent H183/L072", "units": {"fold change of affinity": "fold"}, "values": [
      {"binder": "H183/L072 VL Y32P (antibody, name in Kabat numbering, V domains shown) VH: QVQLVESGGGLVQPGRSLRLSCAASGFTFSNAWMHWVRQAPGKGLEWVAQIKDKGNAYAAYYAPSVKGRFTISRDDSKNSIYLQMNSLKTEDTAVYYCHYVHYASASTVLPAFGVDAWGQGTTVTVSS VL: DIVMTQSPLSLPVTPGEPASISCQASQELVHMNRNTPLHWYQQKPGQAPRLLIYKVSNRFPGVPDRFSGSGSGTDFTLKISRVEAEDVGVYYCAQGTSVPFTFGQGTKLEIK", "fold change of affinity": 0},
      {"binder": "H183/L072 VL N28R (antibody, name in Kabat numbering, V domains shown) VH: QVQLVESGGGLVQPGRSLRLSCAASGFTFSNAWMHWVRQAPGKGLEWVAQIKDKGNAYAAYYAPSVKGRFTISRDDSKNSIYLQMNSLKTEDTAVYYCHYVHYASASTVLPAFGVDAWGQGTTVTVSS VL: DIVMTQSPLSLPVTPGEPASISCQASQELVHMRRNTYLHWYQQKPGQAPRLLIYKVSNRFPGVPDRFSGSGSGTDFTLKISRVEAEDVGVYYCAQGTSVPFTFGQGTKLEIK", "fold change of affinity": 0},
      {"binder": "H183/L072 VL H34V (antibody, name in Kabat numbering, V domains shown) VH: QVQLVESGGGLVQPGRSLRLSCAASGFTFSNAWMHWVRQAPGKGLEWVAQIKDKGNAYAAYYAPSVKGRFTISRDDSKNSIYLQMNSLKTEDTAVYYCHYVHYASASTVLPAFGVDAWGQGTTVTVSS VL: DIVMTQSPLSLPVTPGEPASISCQASQELVHMNRNTYLVWYQQKPGQAPRLLIYKVSNRFPGVPDRFSGSGSGTDFTLKISRVEAEDVGVYYCAQGTSVPFTFGQGTKLEIK", "fold change of affinity": 0},
      {"binder": "H183/L072 VL T31F (antibody, name in Kabat numbering, V domains shown) VH: QVQLVESGGGLVQPGRSLRLSCAASGFTFSNAWMHWVRQAPGKGLEWVAQIKDKGNAYAAYYAPSVKGRFTISRDDSKNSIYLQMNSLKTEDTAVYYCHYVHYASASTVLPAFGVDAWGQGTTVTVSS VL: DIVMTQSPLSLPVTPGEPASISCQASQELVHMNRNFYLHWYQQKPGQAPRLLIYKVSNRFPGVPDRFSGSGSGTDFTLKISRVEAEDVGVYYCAQGTSVPFTFGQGTKLEIK", "fold change of affinity": 0},
      {"binder": "H183/L072 VL V27cG (antibody, name in Kabat numbering, V domains shown) VH: QVQLVESGGGLVQPGRSLRLSCAASGFTFSNAWMHWVRQAPGKGLEWVAQIKDKGNAYAAYYAPSVKGRFTISRDDSKNSIYLQMNSLKTEDTAVYYCHYVHYASASTVLPAFGVDAWGQGTTVTVSS VL: DIVMTQSPLSLPVTPGEPASISCQASQELGHMNRNTYLHWYQQKPGQAPRLLIYKVSNRFPGVPDRFSGSGSGTDFTLKISRVEAEDVGVYYCAQGTSVPFTFGQGTKLEIK", "fold change of affinity": 0},
      {"binder": "H183/L072 VL Y32V (antibody, name in Kabat numbering, V domains shown) VH: QVQLVESGGGLVQPGRSLRLSCAASGFTFSNAWMHWVRQAPGKGLEWVAQIKDKGNAYAAYYAPSVKGRFTISRDDSKNSIYLQMNSLKTEDTAVYYCHYVHYASASTVLPAFGVDAWGQGTTVTVSS VL: DIVMTQSPLSLPVTPGEPASISCQASQELVHMNRNTVLHWYQQKPGQAPRLLIYKVSNRFPGVPDRFSGSGSGTDFTLKISRVEAEDVGVYYCAQGTSVPFTFGQGTKLEIK", "fold change of affinity": 0},
      {"binder": "H183/L072 VL H27dR (antibody, name in Kabat numbering, V domains shown) VH: QVQLVESGGGLVQPGRSLRLSCAASGFTFSNAWMHWVRQAPGKGLEWVAQIKDKGNAYAAYYAPSVKGRFTISRDDSKNSIYLQMNSLKTEDTAVYYCHYVHYASASTVLPAFGVDAWGQGTTVTVSS VL: DIVMTQSPLSLPVTPGEPASISCQASQELVRMNRNTYLHWYQQKPGQAPRLLIYKVSNRFPGVPDRFSGSGSGTDFTLKISRVEAEDVGVYYCAQGTSVPFTFGQGTKLEIK", "fold change of affinity": 0},
      {"binder": "H183/L072 VL N28V (antibody, name in Kabat numbering, V domains shown) VH: QVQLVESGGGLVQPGRSLRLSCAASGFTFSNAWMHWVRQAPGKGLEWVAQIKDKGNAYAAYYAPSVKGRFTISRDDSKNSIYLQMNSLKTEDTAVYYCHYVHYASASTVLPAFGVDAWGQGTTVTVSS VL: DIVMTQSPLSLPVTPGEPASISCQASQELVHMVRNTYLHWYQQKPGQAPRLLIYKVSNRFPGVPDRFSGSGSGTDFTLKISRVEAEDVGVYYCAQGTSVPFTFGQGTKLEIK", "fold change of affinity": 0},
      {"binder": "H183/L072 VL H27dV (antibody, name in Kabat numbering, V domains shown) VH: QVQLVESGGGLVQPGRSLRLSCAASGFTFSNAWMHWVRQAPGKGLEWVAQIKDKGNAYAAYYAPSVKGRFTISRDDSKNSIYLQMNSLKTEDTAVYYCHYVHYASASTVLPAFGVDAWGQGTTVTVSS VL: DIVMTQSPLSLPVTPGEPASISCQASQELVVMNRNTYLHWYQQKPGQAPRLLIYKVSNRFPGVPDRFSGSGSGTDFTLKISRVEAEDVGVYYCAQGTSVPFTFGQGTKLEIK", "fold change of affinity": 0},
      {"binder": "H183/L072 VL L27bG (antibody, name in Kabat numbering, V domains shown) VH: QVQLVESGGGLVQPGRSLRLSCAASGFTFSNAWMHWVRQAPGKGLEWVAQIKDKGNAYAAYYAPSVKGRFTISRDDSKNSIYLQMNSLKTEDTAVYYCHYVHYASASTVLPAFGVDAWGQGTTVTVSS VL: DIVMTQSPLSLPVTPGEPASISCQASQEGVHMNRNTYLHWYQQKPGQAPRLLIYKVSNRFPGVPDRFSGSGSGTDFTLKISRVEAEDVGVYYCAQGTSVPFTFGQGTKLEIK", "fold change of affinity": 0},
      {"binder": "H183/L072 VL H27dY (antibody, name in Kabat numbering, V domains shown) VH: QVQLVESGGGLVQPGRSLRLSCAASGFTFSNAWMHWVRQAPGKGLEWVAQIKDKGNAYAAYYAPSVKGRFTISRDDSKNSIYLQMNSLKTEDTAVYYCHYVHYASASTVLPAFGVDAWGQGTTVTVSS VL: DIVMTQSPLSLPVTPGEPASISCQASQELVYMNRNTYLHWYQQKPGQAPRLLIYKVSNRFPGVPDRFSGSGSGTDFTLKISRVEAEDVGVYYCAQGTSVPFTFGQGTKLEIK", "fold change of affinity": 0},
      {"binder": "H183/L072 VL Y32F (antibody, name in Kabat numbering, V domains shown) VH: QVQLVESGGGLVQPGRSLRLSCAASGFTFSNAWMHWVRQAPGKGLEWVAQIKDKGNAYAAYYAPSVKGRFTISRDDSKNSIYLQMNSLKTEDTAVYYCHYVHYASASTVLPAFGVDAWGQGTTVTVSS VL: DIVMTQSPLSLPVTPGEPASISCQASQELVHMNRNTFLHWYQQKPGQAPRLLIYKVSNRFPGVPDRFSGSGSGTDFTLKISRVEAEDVGVYYCAQGTSVPFTFGQGTKLEIK", "fold change of affinity": 0},
      {"binder": "H183/L072 VL H27dW (antibody, name in Kabat numbering, V domains shown) VH: QVQLVESGGGLVQPGRSLRLSCAASGFTFSNAWMHWVRQAPGKGLEWVAQIKDKGNAYAAYYAPSVKGRFTISRDDSKNSIYLQMNSLKTEDTAVYYCHYVHYASASTVLPAFGVDAWGQGTTVTVSS VL: DIVMTQSPLSLPVTPGEPASISCQASQELVWMNRNTYLHWYQQKPGQAPRLLIYKVSNRFPGVPDRFSGSGSGTDFTLKISRVEAEDVGVYYCAQGTSVPFTFGQGTKLEIK", "fold change of affinity": 0},
      {"binder": "H183/L072 VL N28W (antibody, name in Kabat numbering, V domains shown) VH: QVQLVESGGGLVQPGRSLRLSCAASGFTFSNAWMHWVRQAPGKGLEWVAQIKDKGNAYAAYYAPSVKGRFTISRDDSKNSIYLQMNSLKTEDTAVYYCHYVHYASASTVLPAFGVDAWGQGTTVTVSS VL: DIVMTQSPLSLPVTPGEPASISCQASQELVHMWRNTYLHWYQQKPGQAPRLLIYKVSNRFPGVPDRFSGSGSGTDFTLKISRVEAEDVGVYYCAQGTSVPFTFGQGTKLEIK", "fold change of affinity": 0},
      {"binder": "H183/L072 VL L33W (antibody, name in Kabat numbering, V domains shown) VH: QVQLVESGGGLVQPGRSLRLSCAASGFTFSNAWMHWVRQAPGKGLEWVAQIKDKGNAYAAYYAPSVKGRFTISRDDSKNSIYLQMNSLKTEDTAVYYCHYVHYASASTVLPAFGVDAWGQGTTVTVSS VL: DIVMTQSPLSLPVTPGEPASISCQASQELVHMNRNTYWHWYQQKPGQAPRLLIYKVSNRFPGVPDRFSGSGSGTDFTLKISRVEAEDVGVYYCAQGTSVPFTFGQGTKLEIK", "fold change of affinity": 0},
      {"binder": "H183/L072 VL T31W (antibody, name in Kabat numbering, V domains shown) VH: QVQLVESGGGLVQPGRSLRLSCAASGFTFSNAWMHWVRQAPGKGLEWVAQIKDKGNAYAAYYAPSVKGRFTISRDDSKNSIYLQMNSLKTEDTAVYYCHYVHYASASTVLPAFGVDAWGQGTTVTVSS VL: DIVMTQSPLSLPVTPGEPASISCQASQELVHMNRNWYLHWYQQKPGQAPRLLIYKVSNRFPGVPDRFSGSGSGTDFTLKISRVEAEDVGVYYCAQGTSVPFTFGQGTKLEIK", "fold change of affinity": 0},
      {"binder": "H183/L072 VL N28F (antibody, name in Kabat numbering, V domains shown) VH: QVQLVESGGGLVQPGRSLRLSCAASGFTFSNAWMHWVRQAPGKGLEWVAQIKDKGNAYAAYYAPSVKGRFTISRDDSKNSIYLQMNSLKTEDTAVYYCHYVHYASASTVLPAFGVDAWGQGTTVTVSS VL: DIVMTQSPLSLPVTPGEPASISCQASQELVHMFRNTYLHWYQQKPGQAPRLLIYKVSNRFPGVPDRFSGSGSGTDFTLKISRVEAEDVGVYYCAQGTSVPFTFGQGTKLEIK", "fold change of affinity": 0},
      {"binder": "H183/L072 VL L33P (antibody, name in Kabat numbering, V domains shown) VH: QVQLVESGGGLVQPGRSLRLSCAASGFTFSNAWMHWVRQAPGKGLEWVAQIKDKGNAYAAYYAPSVKGRFTISRDDSKNSIYLQMNSLKTEDTAVYYCHYVHYASASTVLPAFGVDAWGQGTTVTVSS VL: DIVMTQSPLSLPVTPGEPASISCQASQELVHMNRNTYPHWYQQKPGQAPRLLIYKVSNRFPGVPDRFSGSGSGTDFTLKISRVEAEDVGVYYCAQGTSVPFTFGQGTKLEIK", "fold change of affinity": 0},
      {"binder": "H183/L072 VL H34P (antibody, name in Kabat numbering, V domains shown) VH: QVQLVESGGGLVQPGRSLRLSCAASGFTFSNAWMHWVRQAPGKGLEWVAQIKDKGNAYAAYYAPSVKGRFTISRDDSKNSIYLQMNSLKTEDTAVYYCHYVHYASASTVLPAFGVDAWGQGTTVTVSS VL: DIVMTQSPLSLPVTPGEPASISCQASQELVHMNRNTYLPWYQQKPGQAPRLLIYKVSNRFPGVPDRFSGSGSGTDFTLKISRVEAEDVGVYYCAQGTSVPFTFGQGTKLEIK", "fold change of affinity": 0},
      {"binder": "H183/L072 VL Y32W (antibody, name in Kabat numbering, V domains shown) VH: QVQLVESGGGLVQPGRSLRLSCAASGFTFSNAWMHWVRQAPGKGLEWVAQIKDKGNAYAAYYAPSVKGRFTISRDDSKNSIYLQMNSLKTEDTAVYYCHYVHYASASTVLPAFGVDAWGQGTTVTVSS VL: DIVMTQSPLSLPVTPGEPASISCQASQELVHMNRNTWLHWYQQKPGQAPRLLIYKVSNRFPGVPDRFSGSGSGTDFTLKISRVEAEDVGVYYCAQGTSVPFTFGQGTKLEIK", "fold change of affinity": 0},
      {"binder": "H183/L072 VL L27bW (antibody, name in Kabat numbering, V domains shown) VH: QVQLVESGGGLVQPGRSLRLSCAASGFTFSNAWMHWVRQAPGKGLEWVAQIKDKGNAYAAYYAPSVKGRFTISRDDSKNSIYLQMNSLKTEDTAVYYCHYVHYASASTVLPAFGVDAWGQGTTVTVSS VL: DIVMTQSPLSLPVTPGEPASISCQASQEWVHMNRNTYLHWYQQKPGQAPRLLIYKVSNRFPGVPDRFSGSGSGTDFTLKISRVEAEDVGVYYCAQGTSVPFTFGQGTKLEIK", "fold change of affinity": 0}
    ]}
  ]
}
